Assay [1] deals with collagen IV NC1 domains of the NC1 hexamer from sea clam (sea clam (Spisula solidissima)). As to the kind of experiment: SDS-PAGE (SDS resistance of the native hexamer); straight collagenase digest of tissue or animals; SDS-PAGE with 150 mM NaCl; sample at room temperature; Western blot with JK2. (In general: Immunoblotting shows a protein as a band on a membrane.)
For assay [2] the target is unchanged. Briefly: SDS-PAGE (SDS resistance of the native hexamer); straight collagenase digest of tissue or animals; regular SDS-PAGE without Cl^− supplement; sample at room temperature; Western blot with JK2.
Assay [3] addresses collagen IV NC1 domains of the NC1 hexamer from market squid lens capsules (market squid (Doryteuthis opalescens)). As to the kind of experiment: SDS-PAGE (SDS resistance of the native hexamer); partially purified NC1 hexamer (SEC hexamer fraction); SDS-PAGE with 150 mM NaCl; sample at room temperature; Western blot with JK2 or TCE in-gel visualization.
Assay [4] addresses collagen IV NC1 domains of the NC1 hexamer from African clawed frog kidney (African clawed frog (Xenopus laevis)). Briefly: SDS-PAGE (SDS resistance of the native hexamer); straight collagenase digest of tissue or animals; SDS-PAGE with 150 mM NaCl; sample at room temperature; Western blot with JK2.
In assay [5] the target is collagen IV NC1 domains of the NC1 hexamer from placenta basement membrane (bovine). As to the kind of experiment: SDS-PAGE (SDS resistance of the native hexamer); purified NC1 hexamer; Tris-glycine SDS-PAGE with 150 mM NaCl in running buffer and sample buffer; sample at room temperature, not boiled; Coomassie, TCE or Western blot.
Assay [6] deals with collagen IV NC1 domains of the NC1 hexamer from green iguana heart and kidney (green iguana (Iguana iguana)). Briefly: SDS-PAGE (SDS resistance of the native hexamer); straight collagenase digest of tissue or animals; SDS-PAGE with 150 mM NaCl; sample at room temperature; Western blot with JK2.
Assay [7] shares this target. Briefly: SDS-PAGE (SDS resistance of the native hexamer); straight collagenase digest of tissue or animals; regular SDS-PAGE without Cl^− supplement; sample at room temperature; Western blot with JK2.
For assay [8], the target named is collagen IV NC1 domains of the NC1 hexamer from California blackworms (California blackworm (Lumbriculus variegatus)). Briefly: SDS-PAGE (SDS resistance of the native hexamer); straight collagenase digest of tissue or animals; SDS-PAGE with 150 mM NaCl; sample at room temperature; Western blot with JK2.
For assay [9] the target is unchanged. Briefly: SDS-PAGE (SDS resistance of the native hexamer); straight collagenase digest of tissue or animals; regular SDS-PAGE without Cl^− supplement; sample at room temperature; Western blot with JK2.
The target of assay [10] is collagen IV NC1 domains of the NC1 hexamer from banded killifish organs (banded killifish (Fundulus heteroclitus)). Briefly: SDS-PAGE (SDS resistance of the native hexamer); straight collagenase digest of tissue or animals; SDS-PAGE with 150 mM NaCl; sample at room temperature; Western blot with JK2.
For assay [11] the target is unchanged. As to the kind of experiment: SDS-PAGE (SDS resistance of the native hexamer); straight collagenase digest of tissue or animals; regular SDS-PAGE without Cl^− supplement; sample at room temperature; Western blot with JK2.
The target of assay [12] is collagen IV NC1 domains of the NC1 hexamer from axolotl kidney (axolotl (Ambystoma mexicanum)). As to the kind of experiment: SDS-PAGE (SDS resistance of the native hexamer); straight collagenase digest of tissue or animals; SDS-PAGE with 150 mM NaCl; sample at room temperature; Western blot with JK2.
Assay [13] has as its target collagen IV NC1 domains of the NC1 hexamer from human kidney (human (Homo sapiens)). Briefly: SDS-PAGE (SDS resistance of the native hexamer); purified NC1 hexamer; Tris-glycine SDS-PAGE with 150 mM NaCl in running buffer and sample buffer; sample at room temperature, not boiled; Coomassie, TCE or Western blot.
In assay [14] the target is collagen IV NC1 domains of the NC1 hexamer from dogfish lens capsule, kidney and intestine (dogfish (Squalus acanthias)). As to the kind of experiment: SDS-PAGE (SDS resistance of the native hexamer); purified NC1 hexamer; regular SDS-PAGE without Cl^− supplement; sample at room temperature, not boiled; Coomassie, TCE or Western blot.
The target is the same in assay [15]. Briefly: SDS-PAGE (SDS resistance of the native hexamer); purified NC1 hexamer; Tris-glycine SDS-PAGE with 150 mM NaCl in running buffer and sample buffer; sample at room temperature, not boiled; Coomassie, TCE or Western blot.
For assay [16], the target named is collagen IV NC1 domains of the NC1 hexamer from starfish gonads (starfish (Asterias rubens)). Briefly: SDS-PAGE (SDS resistance of the native hexamer); straight collagenase digest of tissue or animals; SDS-PAGE with 150 mM NaCl; sample at room temperature; Western blot with JK2.
The target of assay [17] is collagen IV NC1 domains of the NC1 hexamer from leeches (leech (Hirudo medicinalis)). Described as above.
Assay [18] shares this target. Briefly: SDS-PAGE (SDS resistance of the native hexamer); straight collagenase digest of tissue or animals; regular SDS-PAGE without Cl^− supplement; sample at room temperature; Western blot with JK2.
The target in assay [19] is collagen IV NC1 domains of the NC1 hexamer from mussel (mussel (Mytilus edulis)). As to the kind of experiment: SDS-PAGE (SDS resistance of the native hexamer); straight collagenase digest of tissue or animals; SDS-PAGE with 150 mM NaCl; sample at room temperature; Western blot with JK2.
For assay [20] the target is unchanged. As to the kind of experiment: SDS-PAGE (SDS resistance of the native hexamer); straight collagenase digest of tissue or animals; regular SDS-PAGE without Cl^− supplement; sample at room temperature; Western blot with JK2.
Assay [21] concerns the target collagen IV NC1 domains of the NC1 hexamer from sea squirt (sea squirt (Ciona intestinalis)). Briefly: SDS-PAGE (SDS resistance of the native hexamer); collagenase digest, soluble fraction; Bis-Tris gel, Mops running buffer with 150 mM NaCl, sample buffer with 400 mM NaCl; sample at room temperature; Western blot with JK2.
Assay [22] concerns the target collagen IV NC1 domains of the NC1 hexamer from caiman liver (caiman (Caiman crocodilus)). Briefly: SDS-PAGE (SDS resistance of the native hexamer); straight collagenase digest of tissue or animals; SDS-PAGE with 150 mM NaCl; sample at room temperature; Western blot with JK2.
In assay [23] the target is collagen IV NC1 domains of the NC1 hexamer from zebrafish material (zebrafish (Danio rerio)). Briefly: SDS-PAGE (SDS resistance of the native hexamer); partially purified NC1 hexamer (SEC hexamer fraction); SDS-PAGE with 150 mM NaCl; sample at room temperature; Western blot with JK2 or TCE in-gel visualization.
Assay [24] has the same target. As to the kind of experiment: SDS-PAGE (SDS resistance of the native hexamer); partially purified NC1 hexamer (SEC hexamer fraction); regular SDS-PAGE without Cl^− supplement; sample at room temperature; Western blot with JK2 or TCE in-gel visualization.
Assay [25] has as its target collagen IV NC1 domains of the α121 NC1 hexamer from lens capsule basement membrane (bovine). Briefly: SDS-PAGE (SDS resistance of the native hexamer); purified NC1 hexamer; Tris-glycine SDS-PAGE with 150 mM NaCl in running buffer and sample buffer; sample at room temperature, not boiled; Coomassie, TCE or Western blot.
The target in assay [26] is collagen IV NC1 domains of the NC1 hexamer from rooster liver, kidney and chorioallantoic membrane (rooster (Gallus gallus domesticus)). Described as above.
The target in assay [27] is collagen IV NC1 domains of the NC1 hexamer from quick gloss snail (quick gloss snail (Zonitoides arboreus)). As to the kind of experiment: SDS-PAGE (SDS resistance of the native hexamer); partially purified NC1 hexamer (SEC hexamer fraction); SDS-PAGE with 150 mM NaCl; sample at room temperature; Western blot with JK2 or TCE in-gel visualization.
The target is the same in assay [28]. Briefly: SDS-PAGE (SDS resistance of the native hexamer); partially purified NC1 hexamer (SEC hexamer fraction); regular SDS-PAGE without Cl^− supplement; sample at room temperature; Western blot with JK2 or TCE in-gel visualization.
In assay [29] the target is collagen IV NC1 domains of the NC1 hexamer from snapping turtle muscle (snapping turtle (Chelydra serpentina)). Briefly: SDS-PAGE (SDS resistance of the native hexamer); straight collagenase digest of tissue or animals; SDS-PAGE with 150 mM NaCl; sample at room temperature; Western blot with JK2.

With “collagen IV NC1 domains of the NC1 hexamer from sea clam (domain or fragment)”, the stoichiometry N in assay [1] and in assay [2] was 6 in each case.
Substance “collagen IV NC1 domains of the NC1 hexamer from market squid lens capsules (domain or fragment)” registered a stoichiometry N in assay [3] of 6.
On to “collagen IV NC1 domains of the NC1 hexamer from African clawed frog kidney (domain or fragment)”, for which the stoichiometry N in assay [4] stood at 6.
As to “collagen IV NC1 domains of the NC1 hexamer from placenta basement membrane (domain or fragment)”, in assay [5], the stoichiometry N is 6.
For “collagen IV NC1 domains of the NC1 hexamer from green iguana heart and kidney (domain or fragment)”, the stoichiometry N in assay [6] and in assay [7] was 6 throughout.
Take “collagen IV NC1 domains of the NC1 hexamer from California blackworms (domain or fragment)”: the stoichiometry N in assay [8] and in assay [9] was 6 each time.
Turning to “collagen IV NC1 domains of the NC1 hexamer from banded killifish organs (domain or fragment)”, the stoichiometry N in assay [10] and in [11] was 6 throughout.
In assay [12], “collagen IV NC1 domains of the NC1 hexamer from axolotl kidney (domain or fragment)” registered a stoichiometry N of 6.
In assay [13], “collagen IV NC1 domains of the NC1 hexamer from human kidney (domain or fragment)” returned a stoichiometry N of 6.
As to “collagen IV NC1 domains of the NC1 hexamer from dogfish lens capsule, kidney and intestine (domain or fragment)”, the stoichiometry N in assay [14] and in assay [15] was 6 each time.
“collagen IV NC1 domains of the NC1 hexamer from starfish gonads (domain or fragment)” showed a stoichiometry N in assay [16] of 6.
In the case of “collagen IV NC1 domains of the NC1 hexamer from leeches (domain or fragment)”, the stoichiometry N in [17] and in assay [18] was 6 in each case.
As to “collagen IV NC1 domains of the NC1 hexamer from mussel (domain or fragment)”, the stoichiometry N in assay [19] and in assay [20] was 6 in each case.
“collagen IV NC1 domains of the NC1 hexamer from sea squirt (domain or fragment)”: the stoichiometry N in assay [21] stood at 6.
In turn, “collagen IV NC1 domains of the NC1 hexamer from caiman liver (domain or fragment)” registered a stoichiometry N in assay [22] of 6.
Take “collagen IV NC1 domains of the NC1 hexamer from zebrafish material (domain or fragment)”: the stoichiometry N in assay [23] and in assay [24] was 6 each time.
As to “collagen IV NC1 domains of the α121 NC1 hexamer from lens capsule basement membrane (domain or fragment)”, the stoichiometry N in assay [25] was found to be 6.
Consider “collagen IV NC1 domains of the NC1 hexamer from rooster liver, kidney and chorioallantoic membrane (domain or fragment)”, for which the stoichiometry N in assay [26] came out at 6.
As to “collagen IV NC1 domains of the NC1 hexamer from quick gloss snail (domain or fragment)”, the stoichiometry N in [27] and in [28] was 6 each time.
Consider “collagen IV NC1 domains of the NC1 hexamer from snapping turtle muscle (domain or fragment)”, for which the stoichiometry N in [29] worked out at 6.

Broadly, the stoichiometry N is the number of molecules, sites or subunits per partner or assembly.

Source of the values: publication PMC10656227.
